{"source": "paper PMC9779223", "key": {"[1]": {"system": "P09493", "experiment": "viscosity measurement; falling ball microviscometer, 20 °C; Tpm 1.0 mg/mL (15 µM) with TnT1 at molar ratio 1/1; 30 mM HEPES-Na pH 7.3, 100 mM NaCl, 4 mM DTT; excess viscosity over buffer", "settings": "other: viscosity measurement"}, "[2]": {"system": "P09493", "experiment": "viscosity measurement; falling ball microviscometer, 20 °C; Tpm 1.0 mg/mL (15 µM), without TnT1; 30 mM HEPES-Na pH 7.3, 100 mM NaCl, 4 mM DTT; excess viscosity over buffer as read-out of the end-to-end overlap junction of Tpm dimers", "settings": "other: viscosity measurement"}, "[3]": {"target": "Human Tpm1.1 (α-Tpm) WT (human) (UniProt P09493)", "sequence (P09493 other isoform, or with tags, fused parts or gaps)": "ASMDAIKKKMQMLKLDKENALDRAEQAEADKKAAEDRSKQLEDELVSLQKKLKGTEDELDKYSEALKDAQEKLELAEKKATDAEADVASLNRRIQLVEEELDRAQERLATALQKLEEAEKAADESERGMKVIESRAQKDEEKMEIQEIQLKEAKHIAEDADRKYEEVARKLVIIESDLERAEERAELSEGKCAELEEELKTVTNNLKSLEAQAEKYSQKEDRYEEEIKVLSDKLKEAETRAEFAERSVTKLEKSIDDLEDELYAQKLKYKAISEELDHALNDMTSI", "experiment": "ITC; MicroCal PEAQ-ITC, 25 °C; 30 mM HEPES-Na pH 7.3, 100 mM NaCl, 1 mM DTT; sample in the cell 30 to 60 µM, ligand in the syringe 200 to 700 µM; one set of binding sites"}, "[4]": {"target": "Tropomyosin C-terminal fragment Tpm WT 134–284 (human) (UniProt P09493)", "sequence (P09493 134-284)": "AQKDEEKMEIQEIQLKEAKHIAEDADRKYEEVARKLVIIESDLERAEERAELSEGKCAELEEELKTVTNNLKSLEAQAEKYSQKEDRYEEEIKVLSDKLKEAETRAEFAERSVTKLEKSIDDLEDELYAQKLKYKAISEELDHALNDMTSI", "experiment": "ITC; MicroCal PEAQ-ITC, 25 °C; 30 mM HEPES-Na pH 7.3, 100 mM NaCl, 1 mM DTT; sample in the cell 30 to 60 µM, ligand in the syringe 200 to 700 µM; one set of binding sites"}, "[5]": {"target": "Human Tpm1.1 (α-Tpm) K15N (human) (UniProt P09493)", "sequence (P09493 other isoform, or with tags, fused parts or gaps K15N | K15N)": "as the sequence (P09493 other isoform, or with tags, fused parts or gaps) above, with K17N counted along it", "experiment": "ITC; MicroCal PEAQ-ITC, 25 °C; 30 mM HEPES-Na pH 7.3, 100 mM NaCl, 1 mM DTT; sample in the cell 30 to 60 µM, ligand in the syringe 200 to 700 µM; one set of binding sites"}, "[6]": {"target": "Human Tpm1.1 (α-Tpm) M281T (human) (UniProt P09493)", "sequence (P09493 other isoform, or with tags, fused parts or gaps M281T | M281T)": "as the sequence (P09493 other isoform, or with tags, fused parts or gaps) above, with M283T counted along it", "experiment": "ITC; MicroCal PEAQ-ITC, 25 °C; 30 mM HEPES-Na pH 7.3, 100 mM NaCl, 1 mM DTT; sample in the cell 30 to 60 µM, ligand in the syringe 200 to 700 µM; one set of binding sites"}, "[7]": {"target": "Human Tpm1.1 (α-Tpm) A277V (human) (UniProt P09493)", "sequence (P09493 other isoform, or with tags, fused parts or gaps A277V | A277V)": "as the sequence (P09493 other isoform, or with tags, fused parts or gaps) above, with A279V counted along it", "experiment": "ITC; MicroCal PEAQ-ITC, 25 °C; 30 mM HEPES-Na pH 7.3, 100 mM NaCl, 1 mM DTT; sample in the cell 30 to 60 µM, ligand in the syringe 200 to 700 µM; one set of binding sites"}, "[8]": {"target": "Premixed complex of Tpm WT 1–133 and Tpm WT 134–284 (human) (UniProt P09493)", "sequence (P09493 other isoform, or with tags, fused parts or gaps, chain 1 of 2)": "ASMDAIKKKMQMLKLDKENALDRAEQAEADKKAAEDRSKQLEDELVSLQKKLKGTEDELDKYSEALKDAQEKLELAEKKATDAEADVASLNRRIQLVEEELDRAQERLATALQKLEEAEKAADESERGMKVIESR", "sequence (P09493 134-284, chain 2 of 2)": "as the sequence (P09493 134-284) above", "experiment": "ITC; MicroCal PEAQ-ITC, 25 °C; 30 mM HEPES-Na pH 7.3, 100 mM NaCl, 1 mM DTT; sample in the cell 30 to 60 µM, ligand in the syringe 200 to 700 µM; one set of binding sites"}, "[9]": {"target": "Human Tpm1.1 (α-Tpm) I284V (human) (UniProt P09493)", "sequence (P09493 other isoform, or with tags, fused parts or gaps I284V | I284V)": "as the sequence (P09493 other isoform, or with tags, fused parts or gaps) above, with I286V counted along it", "experiment": "ITC; MicroCal PEAQ-ITC, 25 °C; 30 mM HEPES-Na pH 7.3, 100 mM NaCl, 1 mM DTT; sample in the cell 30 to 60 µM, ligand in the syringe 200 to 700 µM; one set of binding sites"}, "[10]": {"target": "Human Tpm1.1 (α-Tpm) M8R (human) (UniProt P09493)", "sequence (P09493 other isoform, or with tags, fused parts or gaps M8R)": "as the sequence (P09493 other isoform, or with tags, fused parts or gaps) above, with M10R counted along it", "experiment": "ITC; MicroCal PEAQ-ITC, 25 °C; 30 mM HEPES-Na pH 7.3, 100 mM NaCl, 1 mM DTT; sample in the cell 30 to 60 µM, ligand in the syringe 200 to 700 µM; one set of binding sites"}, "[11]": {"target": "Premixed complex of TnT1 and Tpm WT 134–284 (human) (UniProt P09493)", "experiment": "ITC; MicroCal PEAQ-ITC, 25 °C; 30 mM HEPES-Na pH 7.3, 100 mM NaCl, 1 mM DTT; sample in the cell 30 to 60 µM, ligand in the syringe 200 to 700 µM; one set of binding sites"}}, "data": [{"substance": "Human Tpm1.1 (α-Tpm) WT", "values": [{"measurement": "excess viscosity", "setting": "[1]", "result": "0.992 ± 0.001", "unit": "mPa·s"}, {"measurement": "excess viscosity", "setting": "[2]", "result": 0.125, "unit": "mPa·s"}]}, {"substance": "Human adult cardiac troponin T fragment TnT1 (TnT1–158) (domain or fragment)", "values": [{"measurement": "Kd", "setting": "[3]", "result": 910, "unit": "nM"}, {"measurement": "dH", "setting": "[3]", "result": -9.69, "unit": "kcal/mol"}, {"measurement": "stoichiometry N", "setting": "[3]", "result": 0.629}, {"measurement": "Kd", "setting": "[4]", "result": 1900, "unit": "nM"}, {"measurement": "dH", "setting": "[4]", "result": 2.1, "unit": "kcal/mol"}, {"measurement": "stoichiometry N", "setting": "[4]", "result": 1.06}, {"measurement": "Kd", "setting": "[5]", "result": 1300, "unit": "nM"}, {"measurement": "dH", "setting": "[5]", "result": -12.1, "unit": "kcal/mol"}, {"measurement": "stoichiometry N", "setting": "[5]", "result": 1.05}, {"measurement": "Kd", "setting": "[6]", "result": 1520, "unit": "nM"}, {"measurement": "dH", "setting": "[6]", "result": -8.83, "unit": "kcal/mol"}, {"measurement": "stoichiometry N", "setting": "[6]", "result": 0.857}, {"measurement": "Kd", "setting": "[7]", "result": 2510, "unit": "nM"}, {"measurement": "dH", "setting": "[7]", "result": -10.6, "unit": "kcal/mol"}, {"measurement": "stoichiometry N", "setting": "[7]", "result": 1.03}, {"measurement": "Kd", "setting": "[8]", "result": 900, "unit": "nM"}, {"measurement": "dH", "setting": "[8]", "result": -7.7, "unit": "kcal/mol"}, {"measurement": "stoichiometry N", "setting": "[8]", "result": 0.69}, {"measurement": "Kd", "setting": "[9]", "result": 1890, "unit": "nM"}, {"measurement": "dH", "setting": "[9]", "result": -14.4, "unit": "kcal/mol"}, {"measurement": "stoichiometry N", "setting": "[9]", "result": 0.775}, {"measurement": "Kd", "setting": "[10]", "result": 1900, "unit": "nM"}, {"measurement": "dH", "setting": "[10]", "result": 2.51, "unit": "kcal/mol"}, {"measurement": "stoichiometry N", "setting": "[10]", "result": 1.15}]}, {"substance": "Tropomyosin N-terminal fragment Tpm WT 1–133 (from UniProt P09493 1-133) (domain or fragment)", "values": [{"measurement": "Kd", "setting": "[11]", "result": 1700, "unit": "nM"}, {"measurement": "dH", "setting": "[11]", "result": -6.5, "unit": "kcal/mol"}, {"measurement": "stoichiometry N", "setting": "[11]", "result": 1.07}]}]}
